Substitutions are numbered along the chain they refer to. In names and notes the source's numbering stands.
T1: PUF4 RNA-binding domain (Saccharomyces cerevisiae, UniProt P25339 537-888)
T1 sequence: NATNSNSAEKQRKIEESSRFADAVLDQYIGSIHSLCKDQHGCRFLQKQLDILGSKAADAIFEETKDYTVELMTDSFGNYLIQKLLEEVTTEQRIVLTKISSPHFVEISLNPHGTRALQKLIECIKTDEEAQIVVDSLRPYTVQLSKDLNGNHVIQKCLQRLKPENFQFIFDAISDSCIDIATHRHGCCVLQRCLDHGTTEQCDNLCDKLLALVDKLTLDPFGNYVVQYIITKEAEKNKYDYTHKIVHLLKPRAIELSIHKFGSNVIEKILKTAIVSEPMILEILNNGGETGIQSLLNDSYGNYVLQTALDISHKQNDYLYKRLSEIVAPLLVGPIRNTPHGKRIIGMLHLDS

B1: Id_ii_S4_P5E.2_K5.1_C5.2_H5.1_A5.1_F5.1_T5.2_[A12C] (ssRNA)
RNA: UUUGACAACUGAUCGUUCUUUCUCUUGUAUUAUUAUCUUCUUUCUCGAUCAGUUGUCUUU
B2: Id_ii_S4_P5E.3_K5.2_C5.2_[T-1A]_H5.2_A5.1_F5.1_T5.2_[T11A]_[A12T] (ssRNA)
RNA: B1 RNA with U25A, G27A, U36A, C37U
B3: Id_ii_S4_P5E.3_K5.2_C5.2_[C-2T]_[T-1G]_H5.2_A5.1_F5.1_T5.2_[A12T] (ssRNA)
RNA: B1 RNA with C24U, U25G, G27A, C37U
B4: Id_ii_S4_P5E.3_K5.2_C5.2_[C-2T]_[T-1G]_H5.2_A5.1_F5.1_T5.2_[T11G]_[A12T] (ssRNA)
RNA: B1 RNA with C24U, U25G, G27A, U36G, C37U
B5: Id_ii_S4_P5E.3_K5.2_C5.2_[C-2T]_[T-1G]_H5.2_A5.1_F5.1_T5.2_[T11A]_[A12C] (ssRNA)
RNA: B1 RNA with C24U, U25G, G27A, U36A
B6: Id_ii_S4_P5E.3_K5.2_C5.2_[C-2T]_[T-1A]_H5.2_A5.1_F5.1_T5.2_[A12T] (ssRNA)
RNA: B1 RNA with C24U, U25A, G27A, C37U
B7: Id_ii_S4_P5E.3_K5.2_C5.2_[C-2T]_H5.2_A5.1_F5.1_T5.2_[T11G]_[A12T] (ssRNA)
RNA: B1 RNA with C24U, G27A, U36G, C37U
B8: Id_ii_S4_P5E.3_K5.2_C5.2_[C-2A]_[T-1C]_H5.2_A5.1_F5.1_T5.2_[T11C]_[A12G] (ssRNA)
RNA: B1 RNA with C24A, U25C, G27A, U36C, C37G
B9: Id_ii_S4_P5E.3_K5.2_C5.2_[C-2T]_[T-1C]_H5.2_A5.1_F5.1_T5.2_[T11C]_[A12G] (ssRNA)
RNA: B1 RNA with C24U, U25C, G27A, U36C, C37G
B10: Id_ii_S4_P5E.3_K5.2_C5.2_[C-2A]_[T-1C]_H5.2_A5.1_F5.1_T5.2_[A12C] (ssRNA)
RNA: B1 RNA with C24A, U25C, G27A
B11: Id_ii_S4_P5E.3_K5.2_C5.2_[T-1A]_H5.2_A5.1_F5.1_T5.2_[T11A]_[A12G] (ssRNA)
RNA: B1 RNA with U25A, G27A, U36A, C37G
B12: Id_ii_S4_P5E.3_K5.2_C5.2_[C-2G]_H5.2_A5.1_F5.1_T5.2_[T11C]_[A12G] (ssRNA)
RNA: B1 RNA with C24G, G27A, U36C, C37G
B13: Id_ii_S4_P5E.3_K5.2_C5.2_[C-2G]_H5.2_A5.1_F5.1_T5.2_[T11G]_[A12T] (ssRNA)
RNA: B1 RNA with C24G, G27A, U36G, C37U
B14: Id_ii_S4_P5E.3_K5.2_C5.2_[C-2T]_H5.2_A5.1_F5.1_T5.2_[T11G]_[A12C] (ssRNA)
RNA: B1 RNA with C24U, G27A, U36G
B15: Id_ii_S4_P5E.3_K5.2_C5.2_[T-1G]_H5.2_A5.1_F5.1_T5.2_[A12T] (ssRNA)
RNA: B1 RNA with U25G, G27A, C37U
B16: Id_ii_S4_P5E.3_K5.2_C5.2_[T-1A]_H5.2_A5.1_F5.1_T5.2_[T11A]_[A12C] (ssRNA)
RNA: B1 RNA with U25A, G27A, U36A
B17: Id_ii_S4_P5E.3_K5.2_C5.2_[T-1A]_H5.2_A5.1_F5.1_T5.2_[T11C]_[A12C] (ssRNA)
RNA: B1 RNA with U25A, G27A, U36C
B18: Id_ii_S4_P5E.3_K5.2_C5.2_[C-2G]_H5.2_A5.1_F5.1_T5.2_[A12T] (ssRNA)
RNA: B1 RNA with C24G, G27A, C37U
B19: Id_ii_S4_P5E.3_K5.2_C5.2_[C-2A]_[T-1C]_H5.2_A5.1_F5.1_T5.2_[T11C]_[A12T] (ssRNA)
RNA: B1 RNA with C24A, U25C, G27A, U36C, C37U
B20: Id_ii_S4_P5E.3_K5.2_C5.2_[C-2A]_H5.2_A5.1_F5.1_T5.2_[T11C] (ssRNA)
RNA: B1 RNA with C24A, G27A, U36C, C37A
B21: Id_ii_S4_P5E.3_K5.2_C5.2_[T-1C]_H5.2_A5.1_F5.1_T5.2_[T11C]_[A12T] (ssRNA)
RNA: B1 RNA with U25C, G27A, U36C, C37U
B22: Id_ii_S4_P5E.3_K5.2_C5.2_[C-2A]_[T-1A]_H5.2_A5.1_F5.1_T5.2_[T11C]_[A12C] (ssRNA)
RNA: B1 RNA with C24A, U25A, G27A, U36C
B23: Id_ii_S4_P5E.3_K5.2_C5.2_[C-2T]_[T-1G]_H5.2_A5.1_F5.1_T5.2_[T11G]_[A12C] (ssRNA)
RNA: B1 RNA with C24U, U25G, G27A, U36G

The binders below were run against T1, PUF4 RNA-binding domain (assay: Mg; RNA-MaP; 20 mM Na-HEPES pH 7.4, 30 mM KOAc, 0.75 mM MgCl2, 0.1% Tween-20, 5% glycerol, 0.1 mg/mL BSA, 2 mM DTT; 25 C; 0.0125-409.6 nM protein). Details: tags: N-His6-TEV cleaved; C-SNAP kept, Cy3B-labelled; label: tethered on chip by stalled RNA polymerase.

Which Kd does the source give for UCUCUUUGCAUUUUUAUCUCUU (ssRNA) [Ib_S1_P5E.1_K5.1_C5.1_H5.1_[T3C]_A5.1_[A7T]_F5.1_T5.1] here?
The Kd was 1540 nM.

How did the Kd turn out when B1 was run?
Its Kd is 1.53 nM.

For B2, which Kd is on record?
Its Kd is 214 nM.

Which Kd does the source give for B3 here?
Its Kd is 0.445 nM.

For B4, which Kd is on record?
Its Kd is 1 nM.

For B5, which Kd is on record?
Its Kd is 0.672 nM.

B6 was tested. Which Kd did it give?
The Kd was 23.8 nM.

B7 was tested. Which Kd did it give?
Its Kd is 500 nM.

With B8 as the binder, how does the Kd read?
Its Kd is 1150 nM.

With B9 as the binder, how does the Kd read?
The Kd was 538 nM.

With B10 as the binder, how does the Kd read?
Its Kd is 216 nM.

For B11, which Kd is on record?
The Kd was > 2300 nM.

B12 was tested. Which Kd did it give?
The Kd was 176 nM.

B13 was tested. Which Kd did it give?
Its Kd is 51.7 nM.

For B14, which Kd is on record?
Its Kd is 416 nM.

Which Kd does the source give for B15 here?
The Kd was 15.6 nM.

How did the Kd turn out when B16 was run?
Its Kd is 143 nM.

With B17 as the binder, how does the Kd read?
Its Kd is 116 nM.

With B18 as the binder, how does the Kd read?
The Kd was 28.2 nM.

With B19 as the binder, how does the Kd read?
The Kd was 122 nM.

For B20, which Kd is on record?
The Kd was 203 nM.

For B21, which Kd is on record?
The Kd was 65.6 nM.

For B22, which Kd is on record?
The Kd was 896 nM.

For B23, which Kd is on record?
The Kd was 1.12 nM.

For UCUCUUUGUGCUAUUAUCUCUU (ssRNA) [Ib_S1_P5E.1_K5.1_C5.1_H5.1_[A4G]_A5.1_[T5C]_F5.1_T5.1], which Kd is on record?
The Kd was 28 nM.

Reference: article PMC9352680, “A comprehensive thermodynamic model for RNA binding by the Saccharomyces cerevisiae Pumilio protein PUF4”
